B1: Fatty acid-binding protein, intestinal, P02693 (parent)
chain: MAFDGTWKVDRNENYEKFMEKMGINVVKRKLGAHDNLKLTITQEGNKFTVKESSNFRNIDVVFELGVDFAYSLADGTELTGTWTMEGNKLVGKFKRVDNGKELIAVREISGNELIQTYTYEGVEAKRIFKKE

“And” between values parts separate entries of the source, which are not always exact repeats. Equal values may be shown once.

The variants in this data set derive from B1. The settings on record: Rattus norvegicus; pH 7; 25 °C; Urea; Fluorescence; NaPO4 25 mM; NaCl 75 mM; structure 1IFB; whole UniProt chain shown.

This note sets out measurements from FireProtDB (doi:10.1021/bi052091o).

For MAFDGTYKVDRNENYEKFMEKMGINVVKRKLGAHDNLKLTITQEGNKFTVKESSNFRNIDVVFELGVDFAYSLADGTELTGTWTMEGNKLVGKFKRVDNGKELIAVREISGNELIQTYTYEGVEAKRIFKKE [W7Y], the “ddG of mutation (higher = less stable)” value came to 0.93 kcal/mol; the denaturant m value is 1.09 kcal/mol/M and 0.77 kcal/mol/M; the “denaturant midpoint (higher = more stable)” value (shortened to “denaturant midpoint”) was 3.52 M and 3.8 M; the unfolding free energy was 3.86 kcal/mol and 2.93 kcal/mol.

Regarding MAFDGTWKVDRNENYEKFMEKMGINVVKRKLGAHDNLKLTITQEGNKFTVKESSNFRNIDVVFELGVDAAYSLADGTELTGTWTMEGNKLVGKFKRVDNGKELIAVREISGNELIQTYTYEGVEAKRIFKKE [F69A], the “ddG of mutation (higher = less stable)” value was -1.38 kcal/mol, the denaturant m value stood at 1.76 kcal/mol/M, the “denaturant midpoint” value came out at 3.52 M and the unfolding free energy was 6.17 kcal/mol.

Consider MAFDGTWKVDRNENYEKFMEKMGINVVKRKLGAHDNLKLTITQEGNKFTVKESSNFRNIDVVFELGVDFAYSLADGTELTGTYTMEGNKLVGKFKRVDNGKELIAVREISGNELIQTYTYEGVEAKRIFKKE [W83Y], for which the “ddG of mutation (higher = less stable)” value was -0.09 kcal/mol; the denaturant m value is 1.38 kcal/mol/M and 1.1 kcal/mol/M; the “denaturant midpoint” value was 3.54 M and 3.6 M; the unfolding free energy was 4.88 kcal/mol and 3.99 kcal/mol.

Consider MAFDGTWKVDRNENYEKFMEKMGINVVKRKLGAHDNLKLTITQEGNKFTVKESSNFRNIDVVFELGVDFAYSLADGTELTGTWTMEGNKLVGKAKRVDNGKELIAVREISGNELIQTYTYEGVEAKRIFKKE [F94A], for which the “ddG of mutation (higher = less stable)” value amounted to 2.42 kcal/mol; the denaturant m value was 1.3 kcal/mol/M and 0.77 kcal/mol/M; the “denaturant midpoint” value was 1.83 M and 2.53 M; the unfolding free energy was 2.37 kcal/mol and 1.94 kcal/mol.
